B1: DUSP5 (parent)
chain: YSEYPECCVDVKPISQEKIESERA
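Also: lentivirally expressed fusions sorted by FACS into six bins by GFP to DsRed ratio, PSI derived from sequencing read proportions per bin multiplied by bin number.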

Variants of B1 are the subject of the data set. In words: protein stability index of a GFP-peptide fusion (GPS, HEK-293T) (PSI 1-6); higher = more stable. The settings on record: c terminus: a fixed tail appended.
For YSEYPECCVDVKPISQEKIESKRA, the protein stability index is 3.43.
As to YSEYPECCVDVKPISQEKIESPRA, the protein stability index is 3.45.
YSEYPECCVDVKPISQEKIESTRA: the protein stability index stood at 4.17.
As to YSEYPECCVDVKPISQEKIESRRA, the protein stability index stood at 3.18.
Take YSEYPECCVDVKPISQEKIESDRA: the protein stability index was 4.24.
With YSEYPECCVDVKPISQEKIESSRA, the protein stability index was determined as 3.56.
Turning to YSEYPECCVDVKPISQEKIESLRA, the protein stability index came out at 2.27.
YSEYPECCVDVKPISQEKIESVRA: the protein stability index turned out to be 3.05.
YSEYPECCVDVKPISQEKIESIRA: the protein stability index came out at 3.54.
As for YSEYPECCVDVKPISQEKIESFRA, the protein stability index came out at 3.6.
For the variant YSEYPECCVDVKPISQEKIESNRA, the protein stability index was 3.59.
With YSEYPECCVDVKPISQEKIESHRA the figure was 4; with YSEYPECCVDVKPISQEKIESQRA, 3.54; with YSEYPECCVDVKPISQEKIESWRA, 2.88.
YSEYPECCVDVKPISQEKIESMRA: the protein stability index came out at 3.65.
For YSEYPECCVDVKPISQEKIESCRA, the protein stability index stood at 3.51.
For the variant YSEYPECCVDVKPISQEKIESYRA, the protein stability index worked out at 2.58.
Regarding YSEYPECCVDVKPISQEKIESARA, the protein stability index came out at 4.36.
Take YSEYPECCVDVKPISQEKIESERF: the protein stability index is 2.43.
With YSEYPECCVDVKPISQEKIESERD the figure was 4.45.
Turning to YSEYPECCVDVKPISQEKIESERP, the protein stability index came out at 3.88.
With YSEYPECCVDVKPISQEKIESERV, the protein stability index stood at 3.89.
Take YSEYPECCVDVKPISQEKIESERK: the protein stability index was found to be 3.82.
Regarding YSEYPECCVDVKPISQEKIESERH, the protein stability index came to 3.73.
As to YSEYPECCVDVKPISQEKIESERN, the protein stability index worked out at 4.1.
On to YSEYPECCVDVKPISQEKIESERL, for which the protein stability index amounted to 4.26.
With YSEYPECCVDVKPISQEKIESERE, the protein stability index stood at 4.9.
Take YSEYPECCVDVKPISQEKIESERW: the protein stability index is 3.44.
With YSEYPECCVDVKPISQEKIESERQ the figure was 4.18; with YSEYPECCVDVKPISQEKIESERY, 3.
Take YSEYPECCVDVKPISQEKIESERG: the protein stability index was determined as 3.82.
On to YSEYPECCVDVKPISQEKIESERI, for which the protein stability index turned out to be 4.16.
With YSEYPECCVDVKPISQIKIESERA, the protein stability index is 3.17.
As to YSEYPECCVDVKPISQAKIESERA, the protein stability index is 4.41.
In the case of YSEYPECCVDVKPISQPKIESERA, the protein stability index was determined as 4.37.
As to YSEYPECCVDVKPISQQKIESERA, the protein stability index came out at 3.97.
Regarding YSEYPECCVDVKPISQTKIESERA, the protein stability index came to 3.89.
On to YSEYPECCVDVKPISQKKIESERA, for which the protein stability index was 3.21.
Consider YSEYPECCVDVKPISQGKIESERA, for which the protein stability index came to 3.86.
Regarding YSEYPECCVDVKPISQFKIESERA, the protein stability index stood at 3.43.
Take YSEYPECCVDVKPISQNKIESERA: the protein stability index came to 3.61.
For the variant YSEYPECCVDVKPISQHKIESERA, the protein stability index stood at 3.82.
For the variant YSEYPECCVDVKPISQCKIESERA, the protein stability index was found to be 3.01.
With YSEYPECCVDVKPISQVKIESERA the figure was 2.86.
Next, YSEYPECCVDVKPISQYKIESERA: 3.1; YSEYPECCVDVKPISQRKIESERA: 2.95.
For the variant YSEYPECCVDVKPISQSKIESERA, the protein stability index stood at 3.06.
On to YSEYPECCVDVKPISQMKIESERA, for which the protein stability index came out at 2.53.
YSEYPECCVDVKPISQWKIESERA: the protein stability index was 2.78.
As for YSEYPECCVDVKPISQDKIESERA, the protein stability index amounted to 3.75.
Next, YSEYPECCVDVKPISQEKIYSERA: 4.1.
On to YSEYPECCVDVKPISQEKIASERA, for which the protein stability index was found to be 4.89.
As to YSEYPECCVDVKPISQEKIWSERA, the protein stability index stood at 2.04.
As for YSEYPECCVDVKPISQEKIISERA, the protein stability index came out at 3.49.
On to YSEYPECCVDVKPISQEKIFSERA, for which the protein stability index was found to be 3.56.
Next, YSEYPECCVDVKPISQEKITSERA: 3.59; YSEYPECCVDVKPISQEKIMSERA: 2.8.
With YSEYPECCVDVKPISQEKIPSERA the figure was 3.78; with YSEYPECCVDVKPISQEKIHSERA, 4; with YSEYPECCVDVKPISQEKISSERA, 3.97.
Regarding YSEYPECCVDVKPISQEKIVSERA, the protein stability index was found to be 2.78.
YSEYPECCVDVKPISQEKICSERA: the protein stability index was found to be 4.31.
Regarding YSEYPECCVDVKPISQEKIDSERA, the protein stability index stood at 4.28.
With YSEYPECCVDVKPISQEKIRSERA the figure was 3.56; with YSEYPECCVDVKPISQEKINSERA, 3.6.
With YSEYPECCVDVKPISQEKIKSERA the figure was 4.02.
On to YSEYPECCVDVKPISQEKIQSERA, for which the protein stability index stood at 3.65.
YSEYPECCVDVKPISQEKIGSERA: the protein stability index is 3.67.
Consider YSEYPECCVDVKPISQEKILSERA, for which the protein stability index was 3.94.
Turning to YSEYPECCVDVKPITQEKIESERA, the protein stability index worked out at 3.85.
Consider YSEYPECCVDVKPIFQEKIESERA, for which the protein stability index is 3.64.
Next, YSEYPECCVDVKPIHQEKIESERA: 4.47; YSEYPECCVDVKPIGQEKIESERA: 4.45; YSEYPECCVDVKPIIQEKIESERA: 3.82.
With YSEYPECCVDVKPIVQEKIESERA, the protein stability index is 3.96.
YSEYPECCVDVKPILQEKIESERA: the protein stability index was found to be 3.68.
With YSEYPECCVDVKPIRQEKIESERA the figure was 4.09.
YSEYPECCVDVKPIPQEKIESERA: the protein stability index was found to be 4.38.
Next, YSEYPECCVDVKPIQQEKIESERA: 4.05.
Turning to YSEYPECCVDVKPIKQEKIESERA, the protein stability index was determined as 3.68.
As to YSEYPECCVDVKPIYQEKIESERA, the protein stability index is 4.18.
Next, YSEYPECCVDVKPISQEKQESERA: 4.95; YSEYPECCVDVKPISQEKAESERA: 4.65.
Turning to YSEYPECCVDVKPISQEKGESERA, the protein stability index is 4.34.
For the variant YSEYPECCVDVKPISQEKPESERA, the protein stability index was 4.02.
On to YSEYPECCVDVKPISQEKVESERA, for which the protein stability index came to 3.31.
Consider YSEYPECCVDVKPISQEKTESERA, for which the protein stability index came out at 4.55.
Take YSEYPECCVDVKPISQEKNESERA: the protein stability index is 4.61.
YSEYPECCVDVKPISQEKMESERA: the protein stability index is 4.1.
Next, YSEYPECCVDVKPISQEKHESERA: 3.01; YSEYPECCVDVKPISQEKEESERA: 4.69.
Regarding YSEYPECCVDVKPISQEKKESERA, the protein stability index was found to be 4.9.
For the variant YSEYPECCVDVKPISQEKYESERA, the protein stability index stood at 3.1.
With YSEYPECCVDVKPISQEKWESERA the figure was 4.24.

The values are drawn from the supplement of paper PMC10567573.
